According to paper PMC7481934 (Nature, 2020):

T1: StrepII-mGFP-Bre1 (S. cerevisiae, UniProt Q07457 1-700)
T1 sequence (looked up): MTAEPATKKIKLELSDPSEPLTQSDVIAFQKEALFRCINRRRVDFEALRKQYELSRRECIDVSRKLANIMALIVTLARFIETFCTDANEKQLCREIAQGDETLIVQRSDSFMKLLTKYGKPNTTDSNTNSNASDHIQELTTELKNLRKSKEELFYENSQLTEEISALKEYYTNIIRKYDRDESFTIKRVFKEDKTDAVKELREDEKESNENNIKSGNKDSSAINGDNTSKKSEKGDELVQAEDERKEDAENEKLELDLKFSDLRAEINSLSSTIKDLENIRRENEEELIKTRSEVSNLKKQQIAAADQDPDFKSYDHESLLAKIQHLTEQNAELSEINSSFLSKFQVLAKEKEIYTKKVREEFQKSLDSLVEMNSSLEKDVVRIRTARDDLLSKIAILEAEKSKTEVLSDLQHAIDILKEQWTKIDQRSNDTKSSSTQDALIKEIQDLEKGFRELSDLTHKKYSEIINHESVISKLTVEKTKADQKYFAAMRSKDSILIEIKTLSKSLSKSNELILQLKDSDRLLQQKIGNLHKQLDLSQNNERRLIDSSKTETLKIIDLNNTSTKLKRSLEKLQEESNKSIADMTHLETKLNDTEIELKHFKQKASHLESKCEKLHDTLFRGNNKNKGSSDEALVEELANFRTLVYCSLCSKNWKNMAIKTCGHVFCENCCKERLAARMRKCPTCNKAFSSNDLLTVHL

T2: 6His-Lge1-StrepII (S. cerevisiae, UniProt Q02796 1-332)
T2 sequence (looked up): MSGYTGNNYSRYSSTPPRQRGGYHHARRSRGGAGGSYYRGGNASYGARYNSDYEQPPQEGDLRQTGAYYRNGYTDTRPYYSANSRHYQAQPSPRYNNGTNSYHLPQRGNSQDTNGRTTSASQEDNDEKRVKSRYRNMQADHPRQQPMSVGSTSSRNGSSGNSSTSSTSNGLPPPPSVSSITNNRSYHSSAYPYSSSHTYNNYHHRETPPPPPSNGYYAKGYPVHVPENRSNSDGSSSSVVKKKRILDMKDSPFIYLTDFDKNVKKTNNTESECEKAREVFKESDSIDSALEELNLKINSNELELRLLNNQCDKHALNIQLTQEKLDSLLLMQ

T3: StrepII-Bre1 (S. cerevisiae, UniProt Q07457 1-700)
T3 sequence (looked up): T1 sequence (looked up)

B1: Pacific Blue-labelled 6His-TEV-Rad6 (enzyme, S. cerevisiae, UniProt P06104 1-172, looked up)
chain: MSTPARRRLMRDFKRMKEDAPPGVSASPLPDNVMVWNAMIIGPADTPYEDGTFRLLLEFDEEYPNKPPHVKFLSEMFHPNVYANGEICLDILQNRWTPTYDVASILTSIQSLFNDPNPASPANVEAATLFKDHKSQYVKRVKETVEKSWEDDMDDMDDDDDDDDDDDDDEAD
modifications: Pacific Blue C5-Maleimide label
B2: GST-Lge1 IDR-StrepII (domain or fragment, S. cerevisiae, UniProt Q02796 1-242, looked up)
chain: MSGYTGNNYSRYSSTPPRQRGGYHHARRSRGGAGGSYYRGGNASYGARYNSDYEQPPQEGDLRQTGAYYRNGYTDTRPYYSANSRHYQAQPSPRYNNGTNSYHLPQRGNSQDTNGRTTSASQEDNDEKRVKSRYRNMQADHPRQQPMSVGSTSSRNGSSGNSSTSSTSNGLPPPPSVSSITNNRSYHSSAYPYSSSHTYNNYHHRETPPPPPSNGYYAKGYPVHVPENRSNSDGSSSSVVKK
B3: StrepII-Bre1 Lge1 Binding Domain (residues 308-632) (domain or fragment, S. cerevisiae, UniProt Q07457 308-632, looked up)
chain: QDPDFKSYDHESLLAKIQHLTEQNAELSEINSSFLSKFQVLAKEKEIYTKKVREEFQKSLDSLVEMNSSLEKDVVRIRTARDDLLSKIAILEAEKSKTEVLSDLQHAIDILKEQWTKIDQRSNDTKSSSTQDALIKEIQDLEKGFRELSDLTHKKYSEIINHESVISKLTVEKTKADQKYFAAMRSKDSILIEIKTLSKSLSKSNELILQLKDSDRLLQQKIGNLHKQLDLSQNNERRLIDSSKTETLKIIDLNNTSTKLKRSLEKLQEESNKSIADMTHLETKLNDTEIELKHFKQKASHLESKCEKLHDTLFRGNNKNKGSSD
B4: StrepII-mGFP-Bre1 LBD (domain or fragment, S. cerevisiae, UniProt Q07457 308-632, looked up)
chain: B3 chain
B5: GST-Lge1-StrepII (natural protein, S. cerevisiae, UniProt Q02796 1-332, looked up)
chain: T2 sequence (looked up)
B6: GST-Lge1 CC-StrepII (domain or fragment, S. cerevisiae, UniProt Q02796 243-332, looked up)
chain: KRILDMKDSPFIYLTDFDKNVKKTNNTESECEKAREVFKESDSIDSALEELNLKINSNELELRLLNNQCDKHALNIQLTQEKLDSLLLMQ

Tests used:
[1] = target: T1, StrepII-mGFP-Bre1; assay: recruitment to reconstituted condensates
[2] = target: the molecule itself; assay: co-sedimentation
[3] = target: B5; assay: pull-down
[4] = target: T2, 6His-Lge1-StrepII; assay: recruitment to reconstituted condensates
[5] = target: T3, StrepII-Bre1; assay: pull-down

Binder: B1
binding result [1]: binds

Binder: B2
binding result [2]: binds

Binder: B3
binding result [3]: binds

Binder: B4
binding result [4]: binds

Binder: B5
binding result [5]: binds

Binder: B6
binding result [5]: binds
